# Results as given in patent US6034212.
# Columns and labels:
# [1] = biological target: GST-… fusion protein (mouse); assay: Western ligand blot, reference GST-WBP-1 (1-74)
# [2] = biological target: GST-…; assay: blot of mutant ligand proteins probed with 32P-labelled GST-WW-YAP
substance,measurement,setting,value
GST-WW-YAP fusion protein (WW domain of human YAP in pGEX-2TK),signal relative to the N-terminal construct,[1],80%
same,fold reduction of binding against wild-type PY,[2],2 fold
